The source of these data is paper PMC3497731 (Bioscience Reports, 2012).

Values joined by “and” are separate entries in the source; they are usually repeats but may differ in a detail not shown here. Equal entries are not always repeated.

Data set [1] addresses adiponectin secreted from isolated rat primary adipocytes (rat (endogenous in primary adipocytes)). In words: native gel or EMSA.
Data set [2] deals with the molecule itself. The data set can be described thus: native gel or EMSA. A general note: Mobility shift assays separate free from complexed probe on a gel.
Data set [3] deals with the molecule itself. The data set can be described thus: non-reducing denaturing SDS/PAGE.
Data set [4] deals with the molecule itself. The data set can be described thus: native gel or EMSA. This is another data set of the same source.
The data set “SEC” concerns the molecule itself. In words: SEC.

As a reminder, the stoichiometry N is a count of units in the complex or per binding partner. With “adiponectin secreted from isolated rat primary adipocytes (natural protein)”, the stoichiometry N in data set [1] is 6 and 3.

B1: FLAG epitope-tagged mouse adiponectin (natural protein, UniProt Q60994 18-247, looked up)
chain: EDDVTTTEELAPALVPPPKGTCAGWMAGIPGHPGHNGTPGRDGRDGTPGEKGEKGDAGLLGPKGETGDVGMTGAEGPRGFPGTPGRKGEPGEAAYVYRSAFSVGLETRVTVPNVPIRFTKIFYNQQNHYDGSTGKFYCNIPGLYYFSYHITVYMKDVKVSLFKKDKAVLFTYDQYQEKNVDQASGSVLLHLEVGDQVWLQVYGDGDHNGLYADNVNDSTFTGFLLYHDTN
Regarding B1, the “stoichiometry N” value in the data set “native gel or EMSA [2]” is 6 and 3; in data set [3], 2.

B2: adiponectin of differentiated 3T3-L1 adipocytes (natural protein, mouse (endogenous in 3T3-L1), UniProt Q60994 18-247, looked up)
chain: EDDVTTTEELAPALVPPPKGTCAGWMAGIPGHPGHNGTPGRDGRDGTPGEKGEKGDAGLLGPKGETGDVGMTGAEGPRGFPGTPGRKGEPGEAAYVYRSAFSVGLETRVTVPNVPIRFTKIFYNQQNHYDGSTGKFYCNIPGLYYFSYHITVYMKDVKVSLFKKDKAVLFTYDQYQEKNVDQASGSVLLHLEVGDQVWLQVYGDGDHNGLYADNVNDSTFTGFLLYHDTN
With B2, in “native gel or EMSA [4]”, the “stoichiometry N” value is 6 and 3.

B3: adiponectin purified from bovine serum (natural protein, UniProt Q3Y5Z3 18-240, looked up)
chain: EDNMEDPPLPKGACAGWMAGIPGHPGHNGTPGRDGRDGTPGEKGEKGDPGLVGPKGDTGETGITGIEGPRGFPGTPGRKGEPGESAYVYRSAFSVGLERQVTVPNVPIRFTKIFYNQQNHYDGTTGKFLCNIPGLYYFSYHITVYLKDVKVSLYKNDKALLFTHDQFQDKNVDQASGSVLLYLEKGDQVWLQVYEGENHNGVYADNVNDSTFTGFLLYHNIVE
With B3, the “stoichiometry N” value in the data set “SEC” is 6.
